Laboratory results from the supplement of paper PMC12042874.
± gives the uncertainty stated by the source.

Test: amyloid nucleation score (Sup35N fusion, yeast selection) (log enrichment); library NNK1; higher = more nucleation; inactive = no reads after selection
How it was run: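 Plasmid inserts were Illumina-sequenced at input and output from psi-negative yeast expressing Sup35N fused to peptides of 20 random codons. The yeast were induced with 100 μM copper sulfate for 24 hours and grown 7 days at 30°C on medium lacking adenine and uracil, and sequences with under 100 input reads were excluded. Nucleation score is the DiMSum log enrichment of output over input reads, centred on the mode score of non-aggregating sequences.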

GVEVAFDVLEETRQWPEYYR
amyloid nucleation score: 1.49 ± 0.49

MAPRFIDVMQ
amyloid nucleation score: -0.94 ± 0.97

RWNRTRFPHLYCKIGEKCIY
amyloid nucleation score: 0.312 ± 0.33

YAKHCAEGYGFLGWSLWAVR
amyloid nucleation score: 0.106 ± 0.34

SLQINMTSSICLVST
amyloid nucleation score: 3.35 ± 0.07

FYAVVFYYDTDSAARCRFC
amyloid nucleation score: 6.32 ± 0.075

VLNFEGMSRAVFLRLISIQQ
amyloid nucleation score: -0.837 ± 0.9

FCILFSLIVTVGSLLRFLYR
amyloid nucleation score: 2.01 ± 0.1

MRFKRRSGFGELGMFAFTPL
amyloid nucleation score: -0.628 ± 0.5

KIKVPRIVLVCKCILFNNLW
amyloid nucleation score: 1.51 ± 0.34

LFGDLTNFQTFYT
amyloid nucleation score: inactive

VFWTYVGERKKSLVCRNLGA
amyloid nucleation score: -0.189 ± 0.71

GCCSVFQNCCSSRVYIFVPI
amyloid nucleation score: 4.87 ± 0.082

MSDKSTWYC
amyloid nucleation score: 0.157 ± 0.61

TNDKCHSITVFSYREVDWTW
amyloid nucleation score: 0.445 ± 0.29

RFETIDANKVILSVKCRWAK
amyloid nucleation score: 2.56 ± 0.17

ISTRQMFVYLRVHCFIDAVE
amyloid nucleation score: 0.043 ± 0.48

ILYTCSSQSASFTGLWTSGL
amyloid nucleation score: 2.03 ± 0.16

YYIRNYVRFRRS
amyloid nucleation score: -0.797 ± 0.48

GERTCSYIYGLFTIFYTGLR
amyloid nucleation score: -0.048 ± 1.3

SSRNDLDVQYLTVDQRPSMP
amyloid nucleation score: 1.66 ± 0.56

LSPLDIPTRDLPIFLTFKDT
amyloid nucleation score: inactive

IYFFIPFSPVGDTDRSFWGY
amyloid nucleation score: -0.059 ± 0.98

PDRRQSN
amyloid nucleation score: inactive

LLRVLFFCFSMRCRVGISVA
amyloid nucleation score: 0.86 ± 0.69

NHLRGKCTWGRYCWSVVIRF
amyloid nucleation score: 0.362 ± 0.83

SQPSMPNSVGGDTFG
amyloid nucleation score: -0.658 ± 0.49

SSTSSRCHTSANLVRLVNGR
amyloid nucleation score: 0.714 ± 0.33

TWLTRYLPLNEFRMG
amyloid nucleation score: 0.776 ± 0.36

KVSENLPRMPANLLTI
amyloid nucleation score: 0.09 ± 0.44

VNIKLLVVRAVFVILKDMGK
amyloid nucleation score: 2.16 ± 0.12

LGIARDSWGKIKQFSAVDSC
amyloid nucleation score: 0.159 ± 0.26

HVCKRRFRFRGLTILCRFTL
amyloid nucleation score: -0.769 ± 1.1

KKMIFTVVVECSKLWPLRVV
amyloid nucleation score: 0.399 ± 0.69

YYIVVCR
amyloid nucleation score: 0.932 ± 0.97

HNGDCMITACNTGVLAGYIS
amyloid nucleation score: 1.88 ± 0.26

LWLAFIIES
amyloid nucleation score: 0.338 ± 0.25

ILVVGWFFHLGCLTMSDVVV
amyloid nucleation score: 0.225 ± 1.1

GTCTMTKSFMIDIF
amyloid nucleation score: 0.235 ± 0.25

DVDYLYPLYLVAGFMTNVRK
amyloid nucleation score: 0.535 ± 0.25

IEISDMSWFRPVMFNDAKEL
amyloid nucleation score: 1.44 ± 0.53

ARSVKAIIKAICRGV
amyloid nucleation score: -0.055 ± 0.95

SANRA
amyloid nucleation score: 0.62 ± 0.41

CSCINSHLWSTSG
amyloid nucleation score: 0.386 ± 0.32

GKRDRMLQQIGWKLTYRCWN
amyloid nucleation score: 0.522 ± 0.66

PVSFRILIVEVGLLCRLGAI
amyloid nucleation score: 0.165 ± 0.75

AFSLR
amyloid nucleation score: -0.437 ± 0.57

ILYFLPNFHIMLSLI
amyloid nucleation score: inactive

RDGPSK
amyloid nucleation score: -0.422 ± 0.33

LFTFIGAVCFILNIACSLFF
amyloid nucleation score: 1.05 ± 0.58

GNCPNT
amyloid nucleation score: 0.367 ± 0.75

SASYNFTSCFKFLRRKIVIK
amyloid nucleation score: 0.196 ± 0.24

SVTRHALSNRSNGKIADCC
amyloid nucleation score: -0.306 ± 0.56

FSMWRSWNNNYSLISHSTGH
amyloid nucleation score: 0.367 ± 1.2

TWKLATCIWRSLF
amyloid nucleation score: -0.238 ± 0.21

CHSTGGT
amyloid nucleation score: -0.468 ± 1.9

WIGGVKG
amyloid nucleation score: -0.427 ± 0.72

TYLRKIKKRFPGSRYPSLMG
amyloid nucleation score: 0.15 ± 0.46

NRLWSIRK
amyloid nucleation score: -0.425 ± 0.34

EVPSMRVNAPLKV
amyloid nucleation score: inactive

DCCISVSHSGRAALYVKVEI
amyloid nucleation score: 0.022 ± 0.46

SRGSVCIAMHLAC
amyloid nucleation score: 0.001 ± 0.37

VDYFFMGAGFEL
amyloid nucleation score: 4.53 ± 0.077

IYRLTCETEVRCGTFNDIVD
amyloid nucleation score: 0.105 ± 0.21

VNCGSYVDLDVGVIGPR
amyloid nucleation score: 0.255 ± 0.84

SWQAVCAMSCCLW
amyloid nucleation score: 8.628 ± 0.051

QRWLWKRNLDCQRDTSL
amyloid nucleation score: 0.514 ± 0.75

RWDSRQGFSRASQVARRADS
amyloid nucleation score: -0.391 ± 0.39

MNKIITRTRSMATSDSTRHS
amyloid nucleation score: 0.052 ± 0.67

RAELTSTTISTASVFGCGIM
amyloid nucleation score: 5.17 ± 0.07

WSLDSNKSWSCFKCLCFYCG
amyloid nucleation score: 6.223 ± 0.054

YRLKRINCGHVGHYMEDIRR
amyloid nucleation score: -0.099 ± 0.29

PRVLHTSVGFCLFNEYCSTT
amyloid nucleation score: 2.45 ± 0.18

CNQMSFFTEALVNKLHLFFT
amyloid nucleation score: inactive

FTLLTAPGMATHLRTGMRSR
amyloid nucleation score: 0.51 ± 0.56

WFVTFVWVSSVRTILP
amyloid nucleation score: 0.361 ± 1

RWGRESRLRV
amyloid nucleation score: -0.122 ± 0.29

KIMCELCNSVRNALWRTLRG
amyloid nucleation score: -0.01 ± 0.71

DQGSWFH
amyloid nucleation score: -0.31 ± 1.1

NCTKSSWYGCYT
amyloid nucleation score: -0.287 ± 0.35

RSFIVCSRNRVGLTNFRCLE
amyloid nucleation score: 0.364 ± 0.84

ARWLIEAVWSMYRFHYIGKR
amyloid nucleation score: -0.722 ± 0.52

GNSFISV
amyloid nucleation score: -0.088 ± 0.81

PARSWNLLLSSYYAVFGCFY
amyloid nucleation score: -0.327 ± 0.74

LECSNSNLWCTPN
amyloid nucleation score: 0.712 ± 0.69

YLVWCIESITLGFMGELGAR
amyloid nucleation score: 0.199 ± 0.57

YFLTFRFCFSVNEVIDPWCA
amyloid nucleation score: -0.725 ± 1.1

LSYLLWGETRIRYWVPASLM
amyloid nucleation score: -0.32 ± 0.61

DRIFDHGIHMFSIVGQDLFT
amyloid nucleation score: inactive

FLHHFQCKNTSN
amyloid nucleation score: inactive

NMNNGDMSSVVVVIRVFCLI
amyloid nucleation score: 5.38 ± 0.093

NFIRKPFGFIY
amyloid nucleation score: -0.282 ± 1.7

LDMTTTLLVSLESDG
amyloid nucleation score: 0.04 ± 0.73

SETYTPDRYNVRT
amyloid nucleation score: 0.536 ± 1.4

YLTYAPQVWLSAGFNSNEGS
amyloid nucleation score: 5.71 ± 0.078

VITNVRL
amyloid nucleation score: -0.089 ± 0.35

TAIRLVQS
amyloid nucleation score: -0.283 ± 0.44

RVKVGSRCVSQFLSTLVQRS
amyloid nucleation score: -0.266 ± 1.4

FDGCNTKGNMSFAWSRPLGM
amyloid nucleation score: 0.246 ± 0.97

KAGRGICESYRSFHPRPVFA
amyloid nucleation score: 0.034 ± 0.4

NNEPGLGEK
amyloid nucleation score: -0.598 ± 0.92

LMQVVGTVGGRQCTVGWFGV
amyloid nucleation score: -0.523 ± 0.66

SEGCMSGRLCDRGVASFVWL
amyloid nucleation score: 0.7 ± 0.97

MLKQMSSLGREEIYVF
amyloid nucleation score: -0.314 ± 0.99

LYKEMTWRNWALSLKMSLRR
amyloid nucleation score: 0.146 ± 0.5

YPIYIVWVFIVITICVANDS
amyloid nucleation score: -0.072 ± 0.31

DVLLFL
amyloid nucleation score: -0.779 ± 1.3

GSTDGKGVTQRNYVNSILYV
amyloid nucleation score: 0.472 ± 0.78

FPWTNLSDD
amyloid nucleation score: 0.04 ± 0.36

YSHYNGTVAYRWEPQ
amyloid nucleation score: 0.901 ± 0.47

CDRAIPLSIHTELMYRRSRG
amyloid nucleation score: 1.11 ± 0.38

FYGIARNVLRVGESMARYT
amyloid nucleation score: -0.059 ± 1.2

LFLNTNSRKYTKMDTILILS
amyloid nucleation score: -0.359 ± 0.4

SSTRT
amyloid nucleation score: 0.667 ± 0.97

VRLGMRQMCYQKNRTCQVYF
amyloid nucleation score: -0.173 ± 0.62

FKASIYDISQNT
amyloid nucleation score: -0.459 ± 0.3

RSEATLYRRSSDGVKNVLQK
amyloid nucleation score: -0.535 ± 0.32

SYLGTHRFTECILDRVCTLQ
amyloid nucleation score: 0.125 ± 1.4

NSAKLIARLWMMWDLATSDW
amyloid nucleation score: -0.89 ± 0.46

WCRCTINFRHEDLNPFFNPK
amyloid nucleation score: 2.01 ± 0.16

VEVYFSFLNLIFSGMSVLVE
amyloid nucleation score: 0.129 ± 0.28

CIDCYYRVCRFWSDSQAR
amyloid nucleation score: 0.552 ± 0.74

RRCRVEFLYVHSDYM
amyloid nucleation score: 3.79 ± 0.097

WVHWWFRHVNMACQNGGFIF
amyloid nucleation score: -0.565 ± 0.68

VCKWSVMNHFVVITYHYVMA
amyloid nucleation score: 0.671 ± 0.3

WLQTTYLGLFMVFTGFEGY
amyloid nucleation score: -0.586 ± 0.55

FRQFCCV
amyloid nucleation score: inactive

LSLSMPYSGVLSELYAIATF
amyloid nucleation score: -0.384 ± 0.27

NKSVFVLFVWINSENNVYCE
amyloid nucleation score: 0.443 ± 0.62

HKCVLELFSLIFLGGYFFLR
amyloid nucleation score: 0.041 ± 0.45

WRLSLYPQPLGLWAEATLDT
amyloid nucleation score: -0.209 ± 0.53

CIMLRMFVYESYSVCVVVA
amyloid nucleation score: inactive

DLYGACEMWCAENSYGRFSV
amyloid nucleation score: 0.107 ± 0.95

SFAFAAAYAGEEENRLLMRL
amyloid nucleation score: -0.478 ± 0.34

TSYQA
amyloid nucleation score: -0.115 ± 0.22

TGNGRWVDFFRYRYGLKSRS
amyloid nucleation score: inactive

MSFSCWFLS
amyloid nucleation score: 0.445 ± 0.88

DGDSLGCYWDASLARQCFGR
amyloid nucleation score: -0.086 ± 0.29

KSKLMNKQFSRLTLVSTESR
amyloid nucleation score: 3.86 ± 0.13

MAACMYSCSMSAVEPLHTYS
amyloid nucleation score: 0.039 ± 0.67

VSNRTVNDGYGSSGAALCLR
amyloid nucleation score: 0.099 ± 0.44

FGLVREVFKM
amyloid nucleation score: 0.171 ± 0.59

RYLFLDWSSESRCPFAASNE
amyloid nucleation score: 0.104 ± 0.84

FLSVLNFVRIIEKEVGRNRN
amyloid nucleation score: 1.79 ± 0.15

MNQLTFRTNRPPSTASVFAR
amyloid nucleation score: 1.01 ± 0.61

LLCLLYHAGGTKRGYTTWAS
amyloid nucleation score: -0.133 ± 1.2

VTFWDPVVLTTPPKLCI
amyloid nucleation score: -0.946 ± 0.49

HHKTFV
amyloid nucleation score: inactive

SNTKIED
amyloid nucleation score: 0.508 ± 0.59

NACIPQVFCGSLLKFALQLW
amyloid nucleation score: 3.28 ± 0.088

RYVGLGGFM
amyloid nucleation score: -0.655 ± 0.46

LLLLCMDARRKRYSSMSACS
amyloid nucleation score: 1.02 ± 0.53

VGESHCLNADLVSYQHN
amyloid nucleation score: -0.374 ± 0.6

TYLRMCGSSTR
amyloid nucleation score: -0.14 ± 0.3

AGIIVWN
amyloid nucleation score: -0.087 ± 0.31

LHSWSVAILIHYKMRD
amyloid nucleation score: -0.084 ± 0.27

SNLECV
amyloid nucleation score: -0.019 ± 0.51

PISMKQVKREEMGFTPAVSS
amyloid nucleation score: -0.352 ± 0.95

YDIQVISPPSKM
amyloid nucleation score: 0.202 ± 0.31

SWYLMIKVIETVSGVTGWVG
amyloid nucleation score: 2.39 ± 0.12

GTLFYTDPLLCIVYLINLCR
amyloid nucleation score: -0.33 ± 0.56

QSDMGIIP
amyloid nucleation score: 0.153 ± 0.47

RAPTFMMNLDG
amyloid nucleation score: 3.34 ± 0.12

FIWECGNIISVCMRIGYMKA
amyloid nucleation score: 1.23 ± 0.41

HYTLIESSNRSANNEPQVTH
amyloid nucleation score: 0.353 ± 0.88

MVVWWRHKVLKGHWL
amyloid nucleation score: -0.189 ± 0.61

EAGLCSK
amyloid nucleation score: -0.316 ± 0.45

WPPMQGLSLSSLSSINHPHT
amyloid nucleation score: 0.76 ± 1.1

LVRKKVCTI
amyloid nucleation score: 0.543 ± 0.36

QRYKFLCLRRVENFGGYMSA
amyloid nucleation score: 2.54 ± 0.24

FYRNTGFMW
amyloid nucleation score: -1.42 ± 2.7

ELDNCARLGADCKGLNAGRS
amyloid nucleation score: inactive

FNMIVSYAFVAFIVNIKVEI
amyloid nucleation score: 1.99 ± 0.12
